The test system of one experiment is Escherichia coli 25922. Kind of experiment: Serum survival assay. It is filed as cell-based. The note with it: mouse serum; 13 μM lactoferrin with 10 μM Compound B. The procedure:
(§1) Serum survival assays were performed using fresh serum from normal mice or human serum from the Israel Blood Bank; samples were pooled and stored in aliquots at −80° C. until use. Time-dependent killing was determined in a final volume of 125 μL consisting of 112.5 μL of serum containing either a tested compound, egg white lysozyme (Amresco), lactoferrin (Vivinal lactoferrin FD; DMV International, Delhi, N.Y.), anti-murine C5/C5a antibody (25 μg/mL; ab194637; Abcam), or their combination, as specified. These solutions were supplemented with 12.5 μL of bacteria suspended in PBS at the desired concentration. After the specified time points of exposure, cultures were subjected to serial 10-fold dilutions in saline (0.85% NaCl) and plated for bacterial enumeration after incubation at 37° C. for an additional 24 hours. In heat-treated experiments, sera were incubated at 56° C. for 30 minutes for protein inactivation. Data were obtained from 3 independent experiments.

Experiment [1] relates to Klebsiella pneumoniae 1287. Kind of experiment: Serum survival assay. The format is cell-based. The note with it: mouse serum; 13 μM lactoferrin with 10 μM Compound B. The procedure: as §1

The text below walks through data of patent publication US20200399308A1, “COMPOUNDS AND METHODS FOR ELICITING ANTIMICROBIAL ACTIVITY” (Technion Research & Development Foundation Limited, priority 2018, published 2020).

B1: lactoferrin: host defense antimicrobial protein (Vivinal lactoferrin FD) (protein, UniProt P24627 20-708, looked up)
Lactotransferrin: APRKNVRWCTISQPEWFKCRRWQWRMKKLGAPSITCVRRAFALECIRAIAEKKADAVTLDGGMVFEAGRDPYKLRPVAAEIYGTKESPQTHYYAVAVVKKGSNFQLDQLQGRKSCHTGLGRSAGWIIPMGILRPYLSWTESLEPLQGAVAKFFSASCVPCIDRQAYPNLCQLCKGEGENQCACSSREPYFGYSGAFKCLQDGAGDVAFVKETTVFENLPEKADRDQYELLCLNNSRAPVDAFKECHLAQVPSHAVVARSVDGKEDLIWKLLSKAQEKFGKNKSRSFQLFGSPPGQRDLLFKDSALGFLRIPSKVDSALYLGSRYLTTLKNLRETAEEVKARYTRVVWCAVGPEEQKKCQQWSQQSGQNVTCATASTTDDCIVLVLKGEADALNLDGGYIYTAGKCGLVPVLAENRKSSKHSSLDCVLRPTEGYLAVAVVKKANEGLTWNSLKDKKSCHTAVDRTAGWNIPMGLIVNQTGSCAFDEFFSQSCAPGADPKSRLCALCAGDDQGLDKCVPNSKEKYYGYTGAFRCLAEDVGDVAFVKNDTVWENTNGESTADWAKNLNREDFRLLCLDGTRKPVTEAQSCHLAVAPNHAVVSRSDRAAHVKQVLLHQQALFGKNGKNCPDKFCLFKSETKNLLFNDNTECLAKLGGRPTYEEYLGTEYVTAIANLKKCSTSPLLEACAFLTR
On to B1, for which the “sensitization by Compound B to lactoferrin” value (in the experiment with Escherichia coli 25922; in experiment [1]) was “no significant sensitization” each time.
